{
  "source": "patent US20260078420A1",
  "substrate": "OC[C@H]1O[C@@H](O[C@H]2C(O)O[C@H](CO)[C@@H](O)[C@@H]2O)[C@H](O)[C@@H](O)[C@@H]1O",
  "experiment": "purified protein, by the assay type",
  "details": "other: sophorose substrate; Gawronski phosphate release assay; 37.0 °C",
  "data": [
    {"protein": "Rhizobium tropici β-1,2-glucan phosphorylase (RtSOGP, B6), wild type, SEQ ID NO: 11 (Martinezella tropici) (protein) MSSGTNRSFQTPRREELGLITLSNTAGLSASALPNGTLFSIDFADQQGGVMINQVLGSPVYGGIGRLYLRIGGAKPATAEIVGPKAAVQFGHGKSGFSWSGETAGVKHTISLRLHPNKTAWFWQVSLENSSNATLSADLVLVQDVGLGDRGFLMNSEAYASQYIDHHIADHSAFGPVIMVRQNLKQGGGRNPWLAQGCLEGAAAYATDAIQLLVPSKGNDGVMVPDFGTSLPSARRQHEVACPTIQSKPLALAAGAKATTTFFGLFIADHPAASSDADLAHLDGLPALQSELAAETISAGQPVRSLLQDAPLAESDDLDQAALDALYPRRMLEEHADGKLLSFFVPDGPHNRHIVLREKERLVARRHGAIVRSGQNMLLDDQTLAATCWMQGIFAAQLTIGNTSFHKLFSVSRDPYNLTRSSGLRILVDLGDGWRLLGVPAAFEMGLSDTRWIYRLPGRTIIVSAIASGDDPAMQWSVSVEGAACRFLVFGQIVLGERDYEAVANIAVDTAGKRISFQPQPSWLWDRYPKAGYHLVTSTPDAFEAIGGDELLYSDSTARNGPFIALKSHPTKALRFAVTGSMTDAQAAEALAARYTTGVESEEMLAPARRFWSHVTRGARIEGDGRDVAAQAVMLPWIAHDAIVHLSVPHGLEQYTGAAWGTRDVCQGPIEFLLAYEHDEEVRQILLTLFSEQYRDRGDWPQWFMLEPYANIRAGEAHGDIVVWPLKALCDYIEATGDIAFLAKTVPWRADDTMQLTSEHATISDHIEKLLDTVRSRFVPGTSLIRYGEGDWNDSLQPADPHLRDWMVSSWTVSLLYEQLVRYANILTLANRNDEAQSLQATAVAMRADFNRLLMRDGIVAGYGVFDPSHDGVELLLHPEDTRTGLHYSLIAMTQPMIGGLFAPEQRHAHMKIIRANLLFPDGVRLMEKPATYSGGPEKLFRRAESSSFFGREIGLMYVHAHLRYCEALALDDDAEAVWAALALANPIAVSGRVEHASLRQRNTYFSSSDAAFEDRYQASAEWTRVKAGDIAVDGGWRIYSSGPGLYTKSLIGNVFGFKRQFGQRIRKPLLPASIGACEVKLDFKA", "values": [
      {"measurement": "Km", "value": 0.07, "unit": "mM"},
      {"measurement": "Vmax", "value": 24, "unit": "µmol/min/mg"},
      {"measurement": "kcat", "value": 50, "unit": "s⁻¹"},
      {"measurement": "kcat/Km", "value": 717000, "unit": "M⁻¹ s⁻¹"}
    ]}
  ]
}
